In the MegaScale stability set (Tsuboyama et al. 2023):

B1: EEHEE_rd3_0130 (parent)
chain: TKIIVNGKTFTAPTEEEAQKIAEKLAKKAGLTVHKKNGTFELK

Variants of: B1
Assay: folding stability dG (cDNA display proteolysis); higher = more stable
Conditions: PBS, room temperature

Point of comparison: TKIIVNGKLFTAPTEEEAQKIAEKLAKKAGLTVHKKNGTFELK, “folding stability dG” value 2.35 kJ/mol. Against it:
- TKIIVNGKTFTAPTFEEAQKIAEKLAKKAGLTVHKKNGTFELK — higher, 4.2 kJ/mol
- TKIIVNGKTFTAPTQEEAQKIAEKLAKKAGLTVHKKNGTFELK — higher, 2.41 kJ/mol
- TKIIVNGKTFTAPTMEEAQKIAEKLAKKAGLTVHKKNGTFELK — higher, 4.16 kJ/mol
- TKIIVNGKTFTAPTGEEAQKIAEKLAKKAGLTVHKKNGTFELK — lower, 0.787 kJ/mol
- TKIIVNGKTFTAPTPEEAQKIAEKLAKKAGLTVHKKNGTFELK — higher, 3.08 kJ/mol
- TKIIVNGKTFTAPTNEEAQKIAEKLAKKAGLTVHKKNGTFELK — lower, 1.3 kJ/mol
- TKIIVNGKTFTAPTREEAQKIAEKLAKKAGLTVHKKNGTFELK — lower, 1.53 kJ/mol
- TKIIVNGKTFTAPTKEEAQKIAEKLAKKAGLTVHKKNGTFELK — lower, 1.5 kJ/mol
- TKIIVNGKTFTAPTEEEAQKIAEKLAKKAGLTVHKKNGTFELG — lower, 1.99 kJ/mol
- TKIIVNGKTFTAPTEEEAQKEAEKLAKKAGLTVHKKNGTFELK — lower, -0.795 kJ/mol
- TKIIVNGKTFTAPTEEEAQKIAEKLARKAGLTVHKKNGTFELK — higher, 4.15 kJ/mol
- TKIIVNGKTFTAPTEEEAQKIAEKLFKKAGLTVHKKNGTFELK — lower, 0.824 kJ/mol
- TKIIVNGKTFTAPTEEEAIKIAEKLAKKAGLTVHKKNGTFELK — higher, 2.78 kJ/mol
- TKIIVNGKTFTAPTEEEAAKIAEKLAKKAGLTVHKKNGTFELK — higher, 3.45 kJ/mol
- TKIIVNGKTFTAPLEEEAQKIAEKLAKKAGLTVHKKNGTFELK — lower, -1.72 kJ/mol
- TKIIVNGKTFTAPEEEEAQKIAEKLAKKAGLTVHKKNGTFELK — lower, -2.97 kJ/mol
- TKIIVNGKTFTAPSEEEAQKIAEKLAKKAGLTVHKKNGTFELK — higher, 3.6 kJ/mol
- TKIIVNGKNFTAPTEEEAQKIAEKLAKKAGLTVHKKNGTFELK — lower, -1.58 kJ/mol
- TKIIVNGKFFTAPTEEEAQKIAEKLAKKAGLTVHKKNGTFELK — higher, 2.92 kJ/mol
- TKIIVNGKQFTAPTEEEAQKIAEKLAKKAGLTVHKKNGTFELK — lower, 1.59 kJ/mol
- TKIIVNGKHFTAPTEEEAQKIAEKLAKKAGLTVHKKNGTFELK — lower, 0.477 kJ/mol
- TKIIVNGKRFTAPTEEEAQKIAEKLAKKAGLTVHKKNGTFELK — lower, -0.276 kJ/mol
- TKIIVNGKYFTAPTEEEAQKIAEKLAKKAGLTVHKKNGTFELK — higher, 2.65 kJ/mol
- TKIIVMGKTFTAPTEEEAQKIAEKLAKKAGLTVHKKNGTFELK — higher, 3.61 kJ/mol
- TKIIVEGKTFTAPTEEEAQKIAEKLAKKAGLTVHKKNGTFELK — lower, 1.36 kJ/mol
- TKIIVPGKTFTAPTEEEAQKIAEKLAKKAGLTVHKKNGTFELK — lower, -0.318 kJ/mol
- TKIIVNGITFTAPTEEEAQKIAEKLAKKAGLTVHKKNGTFELK — higher, 4.03 kJ/mol
- TKIIVNGVTFTAPTEEEAQKIAEKLAKKAGLTVHKKNGTFELK — higher, 3.61 kJ/mol
- TKIIVNGKTFTAPTEEEAQKIAEKLAKKAGLTVHKKNRTFELK — lower, -1.98 kJ/mol
- TKIIVNGKTFTAPTEEEAQKIAEKLAKKAGLTVHKKNKTFELK — lower, -0.368 kJ/mol
- TKIIVNGKTFTAPTEEEAQKIAEKLAKKAGLTVHKKNQTFELK — lower, -0.908 kJ/mol
- TKIIVNGKTFTAPTEEEAQKIAEKLAKKAGLTVHKKVGTFELK — lower, -2 kJ/mol
- TKIIVNGKTFTAPTEEEAQKIAEKLAKKAGLTVHKKEGTFELK — higher, 2.64 kJ/mol
- TKIIVNGKTFTAPTEEEAQKIAEKLAKKYGLTVHKKNGTFELK — higher, 13.9 kJ/mol
- TKIIVNGKTFTAPTEEEAQKIAEKLAKKKGLTVHKKNGTFELK — higher, 3.5 kJ/mol
- TKIIVNGKTFTAPTEEEAQKIAEKLAKKHGLTVHKKNGTFELK — higher, 8.85 kJ/mol
- TKIIVNGKTFTAPTEEEAQKIAEKLAKKAGLTVHKKNGNFELK — higher, 4.71 kJ/mol
- TKIIVNGKTFTAPTEEEAQKIAEKLAKKAGLTVHKKNGIFELK — higher, 6.04 kJ/mol
- TKIIVNGKTFTAPTEEEAQKIAEKLAKKAGLTVHKKNGAFELK — higher, 6.14 kJ/mol
- TKIIVNGKTFTAPTEEEAQKIAEKLAKKAGLTVHKKNGDFELK — higher, 3.61 kJ/mol
- TKIIVNGKTFTAPTEEEAQKIAEKLAKSAGLTVHKKNGTFELK — higher, 3.26 kJ/mol
- TKIIVNGKTFTAPTEEEAQKIAEKLAKPAGLTVHKKNGTFELK — lower, 0.536 kJ/mol
- TKIIVNGKTFTAPTEEEAQKIAEKLAKAAGLTVHKKNGTFELK — higher, 4.57 kJ/mol
- TKIIVNGKTFTAPTEEEAQKIAEKLAKLAGLTVHKKNGTFELK — higher, 4.33 kJ/mol
- TKIIVNGKTFTAPTEEEAQKIAEKLAKWAGLTVHKKNGTFELK — higher, 6.41 kJ/mol
- TKIIVNPKTFTAPTEEEAQKIAEKLAKKAGLTVHKKNGTFELK — lower, -3.13 kJ/mol
- TKIIVNGKTYTAPTEEEAQKIAEKLAKKAGLTVHKKNGTFELK — higher, 3.56 kJ/mol
- TKIIVNGKTVTAPTEEEAQKIAEKLAKKAGLTVHKKNGTFELK — lower, -2.96 kJ/mol
- TKIIVNGKTFSAPTEEEAQKIAEKLAKKAGLTVHKKNGTFELK — higher, 2.61 kJ/mol
- TKIIVNGKTFEAPTEEEAQKIAEKLAKKAGLTVHKKNGTFELK — lower, 1.09 kJ/mol
- TKIIVNGKTFDAPTEEEAQKIAEKLAKKAGLTVHKKNGTFELK — lower, -1.26 kJ/mol
- TKVIVNGKTFTAPTEEEAQKIAEKLAKKAGLTVHKKNGTFELK — lower, 2.19 kJ/mol
- TKQIVNGKTFTAPTEEEAQKIAEKLAKKAGLTVHKKNGTFELK — lower, -2.78 kJ/mol
- TKFIVNGKTFTAPTEEEAQKIAEKLAKKAGLTVHKKNGTFELK — lower, 0.146 kJ/mol
- TKSIVNGKTFTAPTEEEAQKIAEKLAKKAGLTVHKKNGTFELK — lower, -3.1 kJ/mol
- TKEIVNGKTFTAPTEEEAQKIAEKLAKKAGLTVHKKNGTFELK — lower, -3.8 kJ/mol
- TKIIVNGKTFTAPTEEEAQKIAIKLAKKAGLTVHKKNGTFELK — higher, 3.65 kJ/mol
- TKIIVNGKTFTAPTEEEAQKIAYKLAKKAGLTVHKKNGTFELK — higher, 4.74 kJ/mol
- TKIIVNGKTFTAPTEEEAQKIARKLAKKAGLTVHKKNGTFELK — higher, 3.32 kJ/mol
- TKIIVNGKTFTAPTEEEAQHIAEKLAKKAGLTVHKKNGTFELK — higher, 2.5 kJ/mol
- TKIIVNGKTFTAPTEEEAQFIAEKLAKKAGLTVHKKNGTFELK — higher, 3.21 kJ/mol
- TKIIVNGKTFTAPTEEEAQMIAEKLAKKAGLTVHKKNGTFELK — higher, 3.57 kJ/mol
- TKIIVNGKTFTAPTEEEAQKIAEKLAKKAGLTYHKKNGTFELK — lower, 1.05 kJ/mol
- TKIIVNGKTFTAPTEEEAQKIAEKLAKKAGLTIHKKNGTFELK — higher, 4.74 kJ/mol
- TKIIVNGKTFTAPTEEEAQKIAEKLAKKAGLTHHKKNGTFELK — lower, -1.87 kJ/mol
- TKIIVNGKTFTAPTEREAQKIAEKLAKKAGLTVHKKNGTFELK — higher, 3.73 kJ/mol
- TKIIVNGKTFTAPTEIEAQKIAEKLAKKAGLTVHKKNGTFELK — higher, 3.03 kJ/mol
- TKIIVNGKTFTAPTEAEAQKIAEKLAKKAGLTVHKKNGTFELK — higher, 3.81 kJ/mol
- TKIIVNGKTFTAPTEVEAQKIAEKLAKKAGLTVHKKNGTFELK — higher, 2.4 kJ/mol
- TKIIVNGKTFTAPTELEAQKIAEKLAKKAGLTVHKKNGTFELK — higher, 3.02 kJ/mol
- TKISVNGKTFTAPTEEEAQKIAEKLAKKAGLTVHKKNGTFELK — lower, 0.519 kJ/mol
- TKIIVNGKTFTAPTEEEAQKIAEKLAKKAGMTVHKKNGTFELK — higher, 3.74 kJ/mol
- TKIIVNGKTFTAPTEEEAQKIAEKLAKKAGDTVHKKNGTFELK — lower, -1.99 kJ/mol
- TKIIVNGKTFTAPTEEEAQKIAEKLAKKAGTTVHKKNGTFELK — lower, -1.53 kJ/mol
- TKIIQNGKTFTAPTEEEAQKIAEKLAKKAGLTVHKKNGTFELK — lower, -1.93 kJ/mol
- TKIISNGKTFTAPTEEEAQKIAEKLAKKAGLTVHKKNGTFELK — lower, -1.35 kJ/mol
- TKIITNGKTFTAPTEEEAQKIAEKLAKKAGLTVHKKNGTFELK — lower, -0.824 kJ/mol
- TKIIVNGKTFTAPTEEEAQKIAEKLAKKAGLTVSKKNGTFELK — higher, 2.85 kJ/mol
- TKIIVNGKTFTAPTEEEAQKIAEKLAKKAGLTVNKKNGTFELK — lower, 1.98 kJ/mol
- TKIIVNGKTFTAPTEEEAQKIAEKLAKKAGLTVHKHNGTFELK — higher, 3.93 kJ/mol
- TKIIVNGKTFTAPTEEEAQKIAEKLAKKAGLTVHKWNGTFELK — higher, 2.98 kJ/mol
- TKIIVNGKTFTAPTEEEAQKIAEKLAKKAGLTVHKMNGTFELK — higher, 3.69 kJ/mol
- TKIIVNGKTFTAPTEEEAQKIAEKLAKKAGLTVHKPNGTFELK — lower, -4.11 kJ/mol
- TKIIVNGKTFTAPTEEEAQKIAEKLAKKAGLTVHKFNGTFELK — higher, 4.13 kJ/mol
- TKIIVNGKTFTAPTEEEAQKIAEKLAKKAGLTVHKINGTFELK — higher, 6.52 kJ/mol
- TKIIVNGKTFTAPTEEEAQKIAEKLAKKAGLTVHKKNGTQELK — lower, 0.347 kJ/mol
- TKIIVNGKTFTAPTEEEAQKIAEKLAKKAGLTVHKKNGTDELK — lower, 0.167 kJ/mol
- TKIIVNGKTFTAPTEEEAQKIAEKLAKKAGLTVHKKNGTYELK — higher, 2.54 kJ/mol
- TKIIVNGKTFTAPTEEEAQKIAEKLAKKAGLTVHKKNGTGELK — lower, -0.159 kJ/mol
- TKIIVNGKTFTAPTEEEAQKIAEKLAKKAGLTVHKKNGTSELK — lower, 0.167 kJ/mol
- TKIIVNGKTFTAPTEEEAQKIAEKLAKKAGLSVHKKNGTFELK — higher, 2.6 kJ/mol
- TKIIVNGKTFTAPTEEGAQKIAEKLAKKAGLTVHKKNGTFELK — lower, 1.1 kJ/mol
- TKIIVNGKTFTAPTEEHAQKIAEKLAKKAGLTVHKKNGTFELK — higher, 2.37 kJ/mol
- TKIIVNGKTFTAPTEENAQKIAEKLAKKAGLTVHKKNGTFELK — lower, 0.268 kJ/mol
- TKIIVNGKTFTAPTEEEAQKIAEKLAKKACLTVHKKNGTFELK — higher, 4.1 kJ/mol
- TKIIVNGKTFTAPTEEEAQKIAEKLAKKAHLTVHKKNGTFELK — lower, 2.22 kJ/mol
- TKIIVNGKTFTAPTEEEAQKIAEKLAKKAALTVHKKNGTFELK — lower, -0.163 kJ/mol
- TKIIVNGKTFTAPTEEEAQKIAEKLAKKAELTVHKKNGTFELK — lower, -1.08 kJ/mol
- TKIIVNGKTFTAPTEEEAQKIAEKLAKKALLTVHKKNGTFELK — lower, -0.749 kJ/mol
- TKIIVNGKTFTAPTEEEAQKIAEKLAKKADLTVHKKNGTFELK — lower, 0.293 kJ/mol
- TKIIVNGKTFTAPTEEEAQKIAERLAKKAGLTVHKKNGTFELK — higher, 4.5 kJ/mol
- TKIIVNGKTFTAPTEEEAQKIAEGLAKKAGLTVHKKNGTFELK — higher, 2.58 kJ/mol
- TKIIVNGKTFTNPTEEEAQKIAEKLAKKAGLTVHKKNGTFELK — lower, -1.7 kJ/mol
- TKIIVNGKTFTAPTEEEAQKIAEKLAKKAGLTVHKKNGTFVLK — higher, 4.56 kJ/mol
- TKIIVNGKTFTAPTEEEAQKIAEKLAKKAGLTVHKKNGTFYLK — higher, 7.74 kJ/mol
- TKIIVNGKTFTAPTEEEAQKIAEKLAKKAGLTVHKKNGTFCLK — higher, 4.97 kJ/mol
- TKIIVNGKTFTAPTEEEAQKIAEKLAKKAGLTVHKKNGTFDLK — lower, -0.845 kJ/mol
- TKIIVNGKTFTAPTEEEAQKIAEKTAKKAGLTVHKKNGTFELK — lower, -0.561 kJ/mol
- TKIIVNGKTFTAPTEEEAQKIAEKWAKKAGLTVHKKNGTFELK — higher, 6.17 kJ/mol
- TKIIVNGKTFTAPTEEEAQKIAEKIAKKAGLTVHKKNGTFELK — higher, 4.74 kJ/mol
- TKIIVNGKTFTAPTEEEAQKIAEKLAKKAGLTVHKKNGTFESK — lower, 0.778 kJ/mol
- TKIIVNGKTFTAPTEEEAQKIAEKLAKKAGLTVHKKNGTFEFK — lower, -0.849 kJ/mol
- TKIIVNGKTFTAPTEEEAQKIAEKLAKKAGLTVHKKNGTFEMK — lower, 0 kJ/mol
- TKIIVNGKTFTAPTEEEAQKIAEKLAKKAGLTVHKKNGTFEHK — lower, 1.05 kJ/mol
- TKIIVNGKTFTAKTEEEAQKIAEKLAKKAGLTVHKKNGTFELK — higher, 3.57 kJ/mol
- TKIIVNGKTFTAPTEEEAQKILEKLAKKAGLTVHKKNGTFELK — lower, 1.26 kJ/mol
- TKIIVNGKTFTAPTEEEAQKIEEKLAKKAGLTVHKKNGTFELK — lower, -3.81 kJ/mol
